Data set [1] deals with HeLa Kyoto. Nature of the data set: thermal stability score vs G1/S (z-score of summed log2 fold changes over temperatures); higher = more thermally stable than in G1/S.
In data set [2] the test system is HeLa Kyoto. Nature of the data set: solubility change mitosis vs G1/S (difference of NP-40 vs SDS log2 ratios) (log2 ratio difference); higher = more soluble in mitosis.
For data set [3], the system named is HeLa Kyoto. The data set can be described thus: melting temperature (median over replicates), in situ; higher = more thermally stable.
Data set [4] concerns HeLa Kyoto. Nature of the data set: solubility in G1/S (NP-40 vs SDS abundance) (log2 ratio); higher = more soluble. To be noted: cell cycle stage: G1/S.
[5] abbreviates: cell cycle stage: early G1 (4.5 h after nocodazole release).
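Wherever melting temperature (median over replicates), in situ is given: HeLa Kyoto cells synchronized by double thymidine or nocodazole block, proteins quantified by TMT10plex mass spectrometry, three independent biological replicates.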
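Wherever solubility change mitosis vs G1/S (difference of NP-40 vs SDS log2 ratios) is given: synchronized HeLa Kyoto cells (double thymidine block for G1/S, nocodazole release for mitosis), protein amounts in NP-40 versus SDS lysates quantified by mass spectrometry, three biological replicates.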
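Wherever solubility in G1/S (NP-40 vs SDS abundance) is given: HeLa Kyoto cells arrested at G1/S by double thymidine block, proteins quantified by TMT10plex mass spectrometry in mild NP-40 versus SDS extracts, three biological replicates.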
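Wherever thermal stability score vs G1/S (z-score of summed log2 fold changes over temperatures) is given: synchronized HeLa Kyoto cells, proteins quantified by TMT10plex mass spectrometry, three biological replicates, mitosis taken 0.5 h after nocodazole release, G1/S directly after double thymidine block.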

With “MEGGGGSGNKTTGGLAGFFGAGGAGYSHADLAGVPLTGMNPLSPYLNVDPRYLVQDTDEFILPTGANKTRGRFELAFFTIGGCCMTGAAFGAMNGLRLGLKETQNMAWSKPRNVQILNMVTRQGALWANTLGSLALLYSAFGVIIEKTRGAEDDLNTVAAGTMTGMLYKCTGGLRGIARGGLTGLTLTSLYALYNNWEHMKGSLLQQSL [TIMM23]”, the thermal stability score is -1.18 in the data set with HeLa Kyoto [1] (setting [5]) and -2.03 in the data set with HeLa Kyoto [1] (cell cycle stage: mitosis). In the data set with HeLa Kyoto [2], the “solubility change mitosis (log2)” value is -0.145. Moreover, the melting temperature was found to be 57.3 °C in the data set on HeLa Kyoto [3] (cell cycle stage: G1/S) and 55.6 °C with HeLa Kyoto [3] (cell cycle stage: mitosis). In addition, the “solubility in G1/S (log2)” value in the data set on HeLa Kyoto [4] came to 0.455.
With “MASSEQAEQPSQPSSTPGSENVLPREPLIATAVKFLQNSRVRQSPLATRRAFLKKKGLTDEEIDMAFQQSGTAADEPSSLGPATQVVPVQPPHLISQPYSPAGSRWRDYGALAIIMAGIAFGFHQLYKKYLLPLILGGREDRKQLERMEAGLSELSGSVAQTVTQLQTTLASVQELLIQQQQKIQELAHELAAAKATTSTNWILESQNINELKSEINSLKGLLLNRRQFPPSPSAPKIPSWQIPVKSPSPSSPAAVNHHSSSDISPVSNESTSSSPGKEGHSPEGSTVTYHLLGPQEEGEGVVDVKGQVRMEVQGEEEKREDKEDEEDEEDDDVSHVDEEDCLGVQREDRRGGDGQINEQVEKLRRPEGASNESERD [PEX14]”, the thermal stability score in the data set on HeLa Kyoto [1] (setting [5]) stood at 0.978; in the data set with HeLa Kyoto [1] (cell cycle stage: mitosis), 1.36. Further, the “solubility change mitosis (log2)” value in the data set with HeLa Kyoto [2] was 0.164. For the same sequence, the values for the melting temperature with HeLa Kyoto [3] (cell cycle stage: G1/S) and in the data set on HeLa Kyoto [3] (cell cycle stage: mitosis) were 53.2 °C and 53.6 °C, respectively. In the data set on HeLa Kyoto [4], the “solubility in G1/S (log2)” value was found to be 0.332.
With “MGKEQELLEAARTGHLPAVEKLLSGKRLSSGFGGGGGGGSGGGGGGSGGGGGGLGSSSHPLSSLLSMWRGPNVNCVDSTGYTPLHHAALNGHKDVVEVLLRNDALTNVADSKGCYPLHLAAWKGDAQIVRLLIHQGPSHTRVNEQNNDNETALHCAAQYGHTEVVKVLLEELTDPTMRNNKFETPLDLAALYGRLEVVKMLLNAHPNLLSCNTKKHTPLHLAARNGHKAVVQVLLDAGMDSNYQTEMGSALHEAALFGKTDVVQILLAAGTDVNIKDNHGLTALDTVRELPSQKSQQIAALIEDHMTGKRSTKEVDKTPPPQPPLISSMDSISQKSQGDVEKAVTELIIDFDANAEEEGPYEALYNAISCHSLDSMASGRSSDQDSTNKEAEAAGVKPAGVRPRERPPPPAKPPPDEEEEDHIDKKYFPLTASEVLSMRPRIHGSAAREEDEHPYELLLTAETKKVVLVDGKTKDHRRSSSSRSQDSAEGQDGQVPEQFSGLLHGSSPVCEVGQDPFQLLCTAGQSHPDGSPQQGACHKASMQLEETGVHAPGASQPSALDQSKRVGYLTGLPTTNSRSHPETLTHTASPHPGGAEEGDRSGARSRAPPTSKPKAELKLSRSLSKSDSDLLTCSPTEDATMGSRSESLSNCSIGKKRLEKSPSFASEWDEIEKIMSSIGEGIDFSQERQKISGLRTLEQSVGEWLESIGLQQYESKLLLNGFDDVHFLGSNVMEEQDLRDIGISDPQHRRKLLQAARSLPKVKALGYDGNSPPSVPSWLDSLGLQDYVHSFLSSGYSSIDTVKNLWELELVNVLKVQLLGHRKRIIASLADRPYEEPPQKPPRFSQLRCQDLLSQTSSPLSQNDSCTGRSADLLLPPGDTGRRRHDSLHDPAAPSRAERFRIQEEHREAKLTLRPPSLAAPYAPVQSWQHQPEKLIFESCGYEANYLGSMLIKDLRGTESTQDACAKMRKSTEHMKKIPTIILSITYKGVKFIDASNKNVIAEHEIRNISCAAQDPEDLCTFAYITKDLQTSHHYCHVFSTVDVNLTYEIILTLGQAFEVAYQLALQAQKSRATGASAAEMIETKSSKPVPKPRVGVRKSALEPPDMDQDAQSHASVSWVVDPKPDSKRSLSTN [ANKS1A]”, the thermal stability score amounted to 0.94 in the data set with HeLa Kyoto [1] (setting [5]) and 1.51 with HeLa Kyoto [1] (cell cycle stage: mitosis). Further, the “solubility change mitosis (log2)” value in the data set on HeLa Kyoto [2] is -0.0097. For the same sequence, the values for the melting temperature in the data set on HeLa Kyoto [3] (cell cycle stage: G1/S) and in the data set with HeLa Kyoto [3] (cell cycle stage: mitosis) were 49.9 °C and 50.1 °C, respectively. Moreover, the “solubility in G1/S (log2)” value in the data set with HeLa Kyoto [4] is 0.191.
“MSWFNASQLSSFAKQALSQAQKSIDRVLDIQEEEPSIWAETIPYGEPGISSPVSGGWDTSTWGLKSNTEPQSPPIASPKAITKPVRRTVVDESENFFSAFLSPTDVQTIQKSPVVSKPPAKSQRPEEEVKSSLHESLHIGQSRTPETTESQVKDSSLCVSGETLAAGTSSPKTEGKHEETVNKESDMKVPTVSLKVSESVIDVKTTMESISNTSTQSLTAETKDIALEPKEQKHEDRQSNTPSPPVSTFSSGTSTTSDIEVLDHESVISESSASSRQETTDSKSSLHLMQTSFQLLSASACPEYNRLDDFQKLTESCCSSDAFERIDSFSVQSLDSRSVSEINSDDELSGKGYALVPIIVNSSTPKSKTVESAEGKSEEVNETLVIPTEEAEMEESGRSATPVNCEQPDILVSSTPINEGQTVLDKVAEQCEPAESQPEALSEKEDVCKTVEFLNEKLEKREAQLLSLSKEKALLEEAFDNLKDEMFRVKEESSSISSLKDEFTQRIAEAEKKVQLACKERDAAKKEIKNIKEELATRLNSSETADLLKEKDEQIRGLMEEGEKLSKQQLHNSNIIKKLRAKDKENENMVAKLNKKVKELEEELQHLKQVLDGKEEVEKQHRENIKKLNSMVERQEKDLGRLQVDMDELEEKNRSIQAALDSAYKELTDLHKANAAKDSEAQEAALSREMKAKEELSAALEKAQEEARQQQETLAIQVGDLRLALQRTEQAAARKEDYLRHEIGELQQRLQEAENRNQELSQSVSSTTRPLLRQIENLQATLGSQTSSWEKLEKNLSDRLGESQTLLAAAVERERAATEELLANKIQMSSMESQNSLLRQENSRFQAQLESEKNRLCKLEDENNRYQVELENLKDEYVRTLEETRKEKTLLNSQLEMERMKVEQERKKAIFTQETIKEKERKPFSVSSTPTMSRSSSISGVDMAGLQTSFLSQDESHDHSFGPMPISANGSNLYDAVRMGAGSSIIENLQSQLKLREGEITHLQLEIGNLEKTRSIMAEELVKLTNQNDELEEKVKEIPKLRTQLRDLDQRYNTILQMYGEKAEEAEELRLDLEDVKNMYKTQIDELLRQSLS [TMF1]”: the thermal stability score in the data set with HeLa Kyoto [1] (setting [5]) is -2.48; in the data set on HeLa Kyoto [1] (cell cycle stage: mitosis), -0.992. The “solubility change mitosis (log2)” value in the data set with HeLa Kyoto [2] is -0.065. The melting temperature is 54.5 °C in the data set on HeLa Kyoto [3] (cell cycle stage: G1/S) and 54.4 °C in the data set on HeLa Kyoto [3] (cell cycle stage: mitosis). Further, the “solubility in G1/S (log2)” value in the data set with HeLa Kyoto [4] stood at 0.0833.

For the origin of these results see the supplement of paper PMC5998384.
